Experimental data reported in patent US11913033B2, “Luciferases and methods for using same” (LIGHT BIO, INC., priority 2017, dated 2024).
Values belong to the molecule of their own block, whether it stands above or below them.

How the values were obtained:
[1] = test system: CT26 cells (Mus musculus carcinoma cells); experiment: Labelling of implanted tumour cells in a living mouse, IVIS imaging; format: in vivo; conditions: subcutaneous CT26 cells; luciferin mixture 0.5 mg each intraperitoneally
Method: Vector containing the coding sequence of luciferase from Neonothopanus nambi under the control of a cytomegaloviral promoter was obtained as described in Example 3. In addition, a humanized nucleotide sequence encoding luciferase from Photinus pyralis firefly was synthesized and cloned into the same vector.
The obtained constructs were used to transfect CT26 cells (Mus musculus carcinoma cells). The cells expressing luciferase from Neonothopanus nambi were injected subcutaneously into the left half of a mouse's back, while cells expressing luciferase of Photinus pyralis were injected in the same manner into the right half of a mouse's back. 10 minutes after injection, a mixture of fungal luciferin (0.5 mg) and Photinus pyralis firefly luciferin (0.5 mg) was injected intraperitoneally. Bioluminescence of the mouse was then visualized using IVIS Spectrum CT (PerkinElmer).

fungal luciferases = experiment: Bioluminescence spectra of lysed transfected HEK293N cells with 3-hydroxyhispidin or analogs; format: biochemical; conditions: luciferin 660 μg/ml, pH 8.0, cell lysate
Method: Plasmids comprising coding sequences of fungal luciferases necessary for expression in mammalian cells were obtained as described in Example 3 and used for the transfection of HEK293N cells. 24 hours after the transfection procedure, the cells were detached from dishes using trypsin-Versen solution (0.025% trypsin), the medium was substituted with a phosphate saline buffer, pH 8.0, by centrifugation, the cells were resuspended and lysed using ultrasound; 3-hydroxyhispidin or one of analogs thereof ((E)-6-(4-diethylamino)styryl)-3,4-dihydroxy-2H-pyran-2-one, (E)-3,4-dihydroxy-6-(4-hydroxystyryl)-2H-pyran-2-one, E)-6-(2-1H-indol-3-yl)vinyl)-3,4-dihydroxy-2H-pyran-2-one, (E)-6-(2-(1,2,3,5,6,7-hexahydropyrido[3,2,1-ij]quinoline-9-yl)vinyl)-3,4-dihydroxy-2H-pyran-2-one and (E)-3,4-dihydroxy-6-(2-(6-hydroxynaphthalene-2-yl)vinyl)-2H-pyran-2-one) at a concentration of 660 μg/ml was added to the medium.
Varian Cary Eclipse spectrofluorimeter was used to detect bioluminescence spectra. All the samples emitted light with all examined luciferins.

HEK293NT and HeLa cells = experiment: Luminescence of mammalian cells transfected with humanized luciferases after adding 3-hydroxyhispidin; format: cell-based; conditions: 3-hydroxyhispidin 660 μg/ml, 24 hours after transfection
Text: Coding sequences of luciferases obtained as shown in examples 1 and 2 were optimized (humanized) for expression in mammalian cells. Humanized nucleic acids were obtained by oligonucleotide synthesis using standard techniques. The nucleotide profile of humanized nucleic acids is shown in SEQ ID NOs: 44-51, the amino acid profile of the corresponding proteins is identical to wild-type proteins shown in SEQ ID NOs: 2, 4, 6, 8, 10, 12, 14, 16. The obtained nucleic acids were cloned into pmKate2-keratin vector (Evrogen, Russia) using NheI and NotI restriction sites instead of a sequence encoding mKate2-keratin fusion protein. Plasmid DNA was purified and transfected into HEK293NT and HeLa cells using FuGENE HD Transfection Reagent (Promega, USA) according to the manufacturer's protocol. 24 hours after the transfection procedure, 3-hydroxyhispidin at a concentration of 660 μg/ml was added to the medium, and cell luminescence was detected using IVIS Spectrum CT (PerkinElmer). Intensity of light emission of all samples was by an order of magnitude and greater than the signal coming from the non-transfected control cells (FIG. 2). […]

[2] = Bioluminescence of isolated recombinant luciferase fragments from E. coli with 3-hydroxyhispidin; format: biochemical; conditions: 3-hydroxyhispidin added
Method: Sequence SEQ ID No: 52 was operably linked to the 5′ end of the nucleic acids encoding functional fragments of luciferases (SEQ ID NOs: 19, 21, 23, 25, 27, 29, 31, 33); the obtained constructs were cloned into pET-23 vector using BamHI and HindIII restriction endonucleases. The vector was used to transform Escherichia coli cells of BL21-CodonPlus strain (the derivative of Stratagene BL21-Gold high-yield strain) The cells were plated on Petri dishes containing LB medium comprising 1.5% agar, 100 μg/ml of ampicillin and 100 μg/ml of chloramphenicol, and incubated overnight at 37° C. Escherichia coli colonies were then transferred to 4 ml of liquid LB medium supplemented with ampicillin and chloramphenicol and incubated overnight at 37° C., with rocking. 1 ml of the overnight culture was transferred to 100 ml of Overnight Express Autoinduction medium (Novagen) containing preliminary added ampicillin and chloramphenicol. The culture was grown at 37° C. for 2.5 hours until it reached an optical density of 0.6 OE at 600 nm, and then it was grown at room temperature for 16 hours. The cells were then pelleted by centrifugation at 4500 rpm for 20 minutes in Eppendorf 5810R centrifuge, resuspended in 35 ml of buffer (50 mM Tris HCl, pH 8.0, 150 mM NaCl) and sonicated. […]

[3] = Bioluminescence spectrum of luciferase expressed in Pichia pastoris, supernatant plus 3-hydroxyhispidin; format: biochemical; conditions: 3-hydroxyhispidin (25 μM) in 1% DDM
Method: In order to analyse the bioluminescence of expressed luciferase, Pichia pastoris colonies in which luminescence was observed were isolated and grown in 750 ml flasks filled with 250 ml of YPD medium for 72 hours at 30° C. and stirred at 200 rpm. Luciferase-expressing cells were then pelleted by centrifugation at 5000 g for 15 minutes at 4° C. The obtained pellet was resuspended in a 0.1 M phosphate buffer, pH 7.4, comprising 0.1% DDM for two hours at 4° C. The suspension was centrifuged at 21000 g for 30 min at 4° C. The bioluminescence reaction was activated by adding 750 μl of the obtained supernatant to 250 μl of the solution of 3-hydroxyhispidin (25 μM) in 1% DDM. Varian Cary Eclipse spectrofluorimeter was used to detect bioluminescence.

cells of HEK293NT line = experiment: Cell labelling: luciferase co-transfected into HEK293NT cells, microscopy; format: cell-based, human
Method: Vector containing luciferase from Neonothopanus nambi under the control of a cytomegaloviral promoter obtained as described in Example 3 was co-transfected with pTurboFP635-N vector (Evrogen, Russia) encoding the red fluorescent protein, into the cells of HEK293NT line. Transfection was performed using FuGENE HD transfection reagent (Promega) according to the protocol recommended by the manufacturer. 24 hours after the transfection procedure, 3-hydroxyhispidin was added to the medium up to a final concentration of 660 μg/ml; and cell luminescence was analysed using Leica DM6000 microscope with a 20× objective. The cells were visualized in transmitted light, in the green and red channels for detecting fluorescence (FIG. 6).

Molecule: luciferase from Photinus pyralis: firefly luciferase from Photinus pyralis, humanized sequence, comparison in mouse tumour labelling [reference compound]
intensity of light emission of tumour [1]: 21000000 cu

Molecule: O=c1oc(/C=C/c2ccc3cc(O)ccc3c2)cc(O)c1O [(E)-3,4-dihydroxy-6-(2-(6-hydroxynaphthalene-2-yl)vinyl)-2H-pyran-2-one]
luminescence optimum displacement (fungal luciferases): shift to the long-wavelength region | wavelength of significantly emitted photons (fungal luciferases): more than 580 nm

Molecule: O=c1oc(/C=C/c2c[nH]c3ccccc23)cc(O)c1O [(E)-6-(2-1H-indol-3-yl)vinyl)-3,4-dihydroxy-2H-pyran-2-one]
luminescence optimum displacement (fungal luciferases): shift to the short-wavelength region

B1: SEQ ID No:51 with the replacement of valine with isoleucine at position 146: Panellus stipticus luciferase variant with valine replaced by isoleucine at position 146 (protein, listed as Panellus stipticus)
chain: MNINLKALIGVCAVLITAAVFPFVRKDYHTFLEGGPSYAPQNLQGYIIVLVLSLFRGEETGLEIYDRLPEKRRWLEELPVREGPRPKTTSHIIQRQLNQHVDPDFGMNSLKGSVIRRLQSRHQDITQLALSKFEFHAEAIFLRPDIAINDPKHVPSHDTVRRTKREIAHMHDYHDYTCHLALAAQDGKQVIAKGWGQRHPLAGPGMPGPPTEWTFLYAPRNEAEVQVLETIIEASIGYMSNAPALGGSE
oxidation of 3-hydroxyhispidin in a bioluminescent reaction (HEK293NT and HeLa cells): capable of the oxidation of 3-hydroxyhispidin

B2: functional fragment of luciferase from Neonothopanus nambi: recombinant Neonothopanus nambi luciferase with N-terminal transmembrane domain removed, expressed in E. coli (protein)
chain: IIRRDYQTFLEVGPSYAPQNFRGYIIVCVLSLFRQEQKGLAIYDRLPEKRRWLADLPFREGTRPSITSHIIQRQRTQLVDQEFATRELIDKVIPRVQARHTDKTFLSTSKFEFHAKAIFLLPSIPINDPLNIPSHDTVRRTKREIAHMHDYHDCTLHLALAAQDGKEVLKKGWGQRHPLAGPGVPGPPTEWTFLYAPRNEEEARVVEMIVEASIGYMTNDPAGKIVENAK
modifications: Amino acid sequence of the functional fragment of luciferase from Neonothopanus nambi
notes: recombinant Neonothopanus nambi luciferase with N-terminal transmembrane domain removed, expressed in E. coli
intensity of emitted light, rank among recombinant functional fragments [2]: highest intensity

B3: functional fragment of luciferase from Omphalotus olearius: recombinant Omphalotus olearius luciferase with N-terminal transmembrane domain removed, expressed in E. coli (protein)
chain: FIRKDYQTFLEVGPSYAPQNLQGYIIVCVLSLFRQEQKDVAIYDRLPEKRRWLGDLPFREGPRPSITSHIIQRQRTQLADAEFATKELIGKIIPRVQARHTNTTFLSTSKFEFHAQAIFLLPSIPINDPQNIPSHDTVRRTKREIAHMHDYHDCTLHLALAAQDGKEVLEKGWGQRHPLAGPGVPGPPTEWTFLYAPRSEEEVRVVEMIVEASVVYMTNDPADKIVEATVQGTEE
modifications: Amino acid sequence of the functional fragment of luciferase from Omphalotus olearius
notes: recombinant Omphalotus olearius luciferase with N-terminal transmembrane domain removed, expressed in E. coli
intensity of emitted light, rank among recombinant functional fragments [2]: lowest intensity

bioluminescence spectrum compared with Neonothopanus nambi mycelium bioluminescence [3]: substantially identical
B4: luciferase from Neonothopanus nambi: fungal luciferase from Neonothopanus nambi oxidizing 3-hydroxyhispidin with emission of light (protein, listed as Neonothopanus nambi)
chain: MRINISLSSLFERLSKLSSRSIAITCGVVLASAIAFPIIRRDYQTFLEVGPSYAPQNFRGYIIVCVLSLFRQEQKGLAIYDRLPEKRRWLADLPFREGTRPSITSHIIQRQRTQLVDQEFATRELIDKVIPRVQARHTDKTFLSTSKFEFHAKAIFLLPSIPINDPLNIPSHDTVRRTKREIAHMHDYHDCTLHLALAAQDGKEVLKKGWGQRHPLAGPGVPGPPTEWTFLYAPRNEEEARVVEMIVEASIGYMTNDPAGKIVENAK
intensity of light emission of tumour [1]: 20000000 cu | light signal of expressing cells (cells of HEK293NT line; 3-hydroxyhispidin 660 μg/ml, 24 hours after transfection): distinct light signal in the green region of the spectrum | toxicity of luciferase expression to the cells (cells of HEK293NT line; HEK293NT cells): No signs of toxicity
